# Measured values reported in the supplement of paper PMC10567573.
# B1: CCND1 (parent)
# chain: PEAEENKQIIRKHAQTFVALCATD
# Variants of: B1
# Assay: protein stability index of a GFP-peptide fusion (GPS, HEK-293T) (PSI 1-6); higher = more stable
# Details: c terminus: a fixed tail appended
# 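Note: lentivirally expressed fusions sorted by FACS into six bins by GFP to DsRed ratio, PSI derived from sequencing read proportions per bin multiplied by bin number.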
row,Variant,protein stability index
1,PEAEENRQIIRKHAQTFVALCATD [K7R],3.25
2,PEAEENSQIIRKHAQTFVALCATD [K7S],2.53
3,PEAEENTQIIRKHAQTFVALCATD [K7T],2.64
4,PEAEENVQIIRKHAQTFVALCATD [K7V],2.54
5,PEAEENWQIIRKHAQTFVALCATD [K7W],2.61
6,PEAEENYQIIRKHAQTFVALCATD [K7Y],2.62
7,PEAEENKAIIRKHAQTFVALCATD [Q8A],2.77
8,PEAEENKCIIRKHAQTFVALCATD [Q8C],2.24
9,PEAEENKDIIRKHAQTFVALCATD [Q8D],3.54
10,PEAEENKEIIRKHAQTFVALCATD [Q8E],3.48
11,PEAEENKFIIRKHAQTFVALCATD [Q8F],2.24
12,PEAEENKGIIRKHAQTFVALCATD [Q8G],2.85
13,PEAEENKHIIRKHAQTFVALCATD [Q8H],3.22
14,PEAEENKIIIRKHAQTFVALCATD [Q8I],2.19
15,PEAEENKKIIRKHAQTFVALCATD [Q8K],2.33
16,PEAEENKLIIRKHAQTFVALCATD [Q8L],2.45
17,PEAEENKMIIRKHAQTFVALCATD [Q8M],2.85
18,PEAEENKNIIRKHAQTFVALCATD [Q8N],3.13
19,PEAEENKPIIRKHAQTFVALCATD [Q8P],1.95
20,PEAEENKRIIRKHAQTFVALCATD [Q8R],3.07
21,PEAEENKSIIRKHAQTFVALCATD [Q8S],2.58
22,PEAEENKTIIRKHAQTFVALCATD [Q8T],1.7
23,PEAEENKVIIRKHAQTFVALCATD [Q8V],2.07
24,PEAEENKWIIRKHAQTFVALCATD [Q8W],2.05

row,Variant,protein stability index
1,PEAEENKYIIRKHAQTFVALCATD [Q8Y],2.55
2,PEAEENKQAIRKHAQTFVALCATD [I9A],3.74
3,PEAEENKQCIRKHAQTFVALCATD [I9C],2.48
4,PEAEENKQDIRKHAQTFVALCATD [I9D],3.9
5,PEAEENKQEIRKHAQTFVALCATD [I9E],3.89
6,PEAEENKQFIRKHAQTFVALCATD [I9F],2.86
7,PEAEENKQGIRKHAQTFVALCATD [I9G],3.27
8,PEAEENKQHIRKHAQTFVALCATD [I9H],3.58
9,PEAEENKQKIRKHAQTFVALCATD [I9K],2.45
10,PEAEENKQLIRKHAQTFVALCATD [I9L],3.36
11,PEAEENKQMIRKHAQTFVALCATD [I9M],3.53
12,PEAEENKQNIRKHAQTFVALCATD [I9N],3.56
13,PEAEENKQPIRKHAQTFVALCATD [I9P],3
14,PEAEENKQQIRKHAQTFVALCATD [I9Q],2.81
15,PEAEENKQRIRKHAQTFVALCATD [I9R],2.17
16,PEAEENKQSIRKHAQTFVALCATD [I9S],2.46
17,PEAEENKQTIRKHAQTFVALCATD [I9T],2.18
18,PEAEENKQVIRKHAQTFVALCATD [I9V],3.04
19,PEAEENKQWIRKHAQTFVALCATD [I9W],2.73
20,PEAEENKQYIRKHAQTFVALCATD [I9Y],2.71
21,PEAEENKQIARKHAQTFVALCATD [I10A],2.79
22,PEAEENKQICRKHAQTFVALCATD [I10C],3.13
23,PEAEENKQIDRKHAQTFVALCATD [I10D],3.14
